Data on two substances can be found in publication PMC4521985.

One experiment has as its target IFP1.4 (UniProt Q9RZA4). Nature of the experiment: AUC.
The target in the next experiment is IFP2.0 (UniProt Q9RZA4). The experiment can be described thus: AUC.

For orientation: Kd means the equilibrium constant for the complex coming apart. The term stoichiometry N denotes a count of units in the complex or per binding partner.

In the experiment with IFP1.4, IFP1.4 (from UniProt Q9RZA4 1-321) registered a Kd of 7.8 µM and a stoichiometry N of 2.
In the experiment with IFP2.0, IFP2.0 (from UniProt Q9RZA4 1-321) registered a Kd of 3.7 µM and a stoichiometry N of 2.
